Data as given in patent US9789213B2, “EGFL7 targeting and/or binding polypeptides and methods for inhibiting angiogenesis” (LONDON HEALTH SCIENCES CENTRE RESEARCH INC., priority 2012, dated 2017).
Where no end group is shown, it is not given here. The star is where a group is joined. FITC = O=C1OC2(c3ccc(O)cc3Oc3cc(O)ccc32)c2ccc(NC(=S)*)cc21

Target: T1, recombinant GST-EGFL7 protein (Homo sapiens, UniProt Q9UHF1)
T1 construct: Magnetic nanobeads are then coated with full-length recombinant EGFL7; made in house; host or cells: Spodoptera frugiperda Sf21 (baculovirus)
T1 sequence (Q9UHF1 24-273): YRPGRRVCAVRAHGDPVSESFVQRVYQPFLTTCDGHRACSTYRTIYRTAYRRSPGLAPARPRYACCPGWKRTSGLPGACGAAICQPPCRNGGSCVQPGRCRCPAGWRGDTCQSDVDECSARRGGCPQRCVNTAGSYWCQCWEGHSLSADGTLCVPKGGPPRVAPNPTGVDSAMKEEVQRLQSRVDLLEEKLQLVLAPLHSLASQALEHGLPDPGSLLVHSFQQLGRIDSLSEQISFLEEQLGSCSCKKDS
Experiment: OBOC peptide library screen ('beads on a bead') with secondary cell-based screen
Format: binding
Settings: hit beads from magnetic-bead screen and secondary cell-based screen
Excerpt: The present invention also encompasses methods of screening polypeptides to identify those that interact with EGFL7 and modulate and EGFL7 activity and/or function. In a specific aspect, a combinatorial peptide library is screened using a “beads on a bead” approach, as set out in FIG. 1 and described in Cho et al., which is incorporated herein by reference in its entirety. […] Magnetic nanobeads are then coated with full-length recombinant EGFL7, are mixed with the peptide library, and the most highly interacting library bead “hits” are sorted using large format flow cytometry. An on-bead cell binding assay can then be used to validate the peptide hits using human endothelial cells. Validated hit peptides are then sequenced using an in-house MALDI-TOF/MS technique, and their binding affinity to EGFL7 is quantified using surface plasmon resonance (SPR) (Amadei et al. 2009, J. Mass Spectrometry, 45:241-51; U.S. Pat. Nos. 5,510,240; and 7,262,269, each of which is incorporated by reference herein in its entirety).
All fractions containing EGFL7 recombinant protein were pooled together. 30 μg of anti-GST antibody was mixed into the protein solution, and incubated with 370 mg of MagnaBind Protein A/G magnetic beads (Thermo Scientific) for 15 minutes at 4° C. After several washing with wash buffer, the proteins were released from the magnetic beads by boiling in SDS loading buffer, and analyzed by western blot using anti-EGFL7 polyclonal antibody (R&D Systems).
The OBOC peptide library beads were washed extensively using 70% ethanol, distilled water and binding buffer (50 mM Na2HPO4, 150 mM NaCl, 2 mM CaCl2, 0.5M L-Arginine, pH 7.4) before screening. The magnetic beads were mixed with the library beads in a glass vial, and incubated at 37° C. for 1 hour, A strong magnet was placed at the side of the vial, and the library was screened as described in Cho et al. Positive hits were pooled and washed extensively with ethanol and water. A secondary cell-based screen was performed using EGFL7-positive HT1080 fibrosarcoma cells expressing tdTomato, and EGFL7-negative MDA435 breast cancer cells expressing GFP as described in Cho et al. Hit beads were collected and peptides were sequenced on-bead using MALDI TOF MS/MS as described in Cho et al.
Recombinant EGFL7 protein was purified (FIGS. 2A and 2B) and conjugated onto magnetic beads. Western blot analysis was performed to show successful conjugation of purified EGFL7 onto magnetic beads using a polyclonal anti-EGFL7 antibody (FIG. 2C). EGFL7-conjugated magnetic beads were then mixed with a OBOC combinatorial peptide library, and positive hits were isolated using a strong neodynium magnet. […] Beads were examined under an inverted fluorescence microscope, and hit beads that strongly associated with red cells, but had little or no interaction with green cells were isolated manually.

Substance | affinity for EGFL7 in OBOC peptide library screening
AYYEEAYE (EGFL7 interacting peptide) | high affinity
DPYDHEFR (EGFL7 interacting peptide) | high affinity
EWELHAEE (EGFL7 interacting peptide) | high affinity
RYQLHHPR (EGFL7 interacting peptide) | high affinity
RYVDHEDW (EGFL7 interacting peptide) | high affinity
SQSSMYPS (EGFL7 interacting peptide) | high affinity
WYKLHPTM (EGFL7 interacting peptide) | high affinity

System: HUVECs
Experiment: Cell uptake of FITC-labelled peptide by HUVECs with or without EGFL7 siRNA knockdown, flow cytometry
Format: cell-based, human
Settings: HUVECs treated with negative siRNA or EGFL7 siRNA; 1 mM, 1 hour at 4° C.
Procedure: EGFL7 knockdown in human umbilical vein endothelial cells (HUVECs) was achieved using a siRNA targeting the exon 5 of the protein and INTERFERin transfection reagent (HUVECs-si). Wildtype HUVECs and HUVECs-si cells were seeded onto separate wells in a 6-well tissue culture plate to approximately 80% confluency. The cells were incubated overnight in DMEM containing 10% fetal bovine serum and Pen/Strep at 37° C. with 5% CO2. The media in each well were removed and replaced with pre-chilled PBS. FITC-E7-p72 (FITC-HMYFLLGH; SEQ ID NO: 20) was added onto cells to a final concentration of 1 mM and incubated for 1 hour at 4° C. Cells were detached from the well with EDTA, washed three times with PBS, and fixed with 4% formaldehyde. The uptake of FITC-labeled peptides was analyzed by flow cytometry.

Substance | uptake of fluorescein-labelled peptide
{FITC}-HMYFLLGH [FITC-E7-p72] | dependent on EGFL7 expression
